Data from patent US6787329.

System: T1, TMR-Val-Pro-Arg-Gly-Lys-TMR
T1 sequence: XPRGX

## trypsin-like enzyme of Vibrio parahaemolyticus
  increase in fluorescence on cleavage of the substrate: Cleavage by the trypsin-like enzyme produced an increase in fluorescence.

## trypsin
  average fluorescence ratio w/ trypsin : w/o trypsin, excitation 360 nm, emission 570-585 nm: 26 fold
  average fluorescence ratio w/ trypsin : w/o trypsin, excitation 522 nm, emission 570-585 nm: 28 fold
  average fluorescence ratio w/ trypsin : w/o trypsin, excitation 530 nm, emission 570-585 nm: 27 fold
  average fluorescence ratio w/ trypsin : w/o trypsin, excitation 553 nm, emission 570-585 nm: 25 fold
  fluorescence ratio w/ trypsin : w/o trypsin, excitation 360 nm, emission 570 nm: 27 fold
  fluorescence ratio w/ trypsin : w/o trypsin, excitation 360 nm, emission 571 nm: 25 fold
  fluorescence ratio w/ trypsin : w/o trypsin, excitation 360 nm, emission 572 nm: 25 fold
  fluorescence ratio w/ trypsin : w/o trypsin, excitation 360 nm, emission 573 nm: 25 fold
  fluorescence ratio w/ trypsin : w/o trypsin, excitation 360 nm, emission 574 nm: 27 fold
  fluorescence ratio w/ trypsin : w/o trypsin, excitation 360 nm, emission 575 nm: 24 fold
  fluorescence ratio w/ trypsin : w/o trypsin, excitation 360 nm, emission 576 nm: 24 fold
  fluorescence ratio w/ trypsin : w/o trypsin, excitation 360 nm, emission 577 nm: 26 fold
  fluorescence ratio w/ trypsin : w/o trypsin, excitation 360 nm, emission 578 nm: 26 fold
  fluorescence ratio w/ trypsin : w/o trypsin, excitation 360 nm, emission 579 nm: 25 fold
  fluorescence ratio w/ trypsin : w/o trypsin, excitation 360 nm, emission 580 nm: 27 fold
  fluorescence ratio w/ trypsin : w/o trypsin, excitation 360 nm, emission 581 nm: 27 fold
  fluorescence ratio w/ trypsin : w/o trypsin, excitation 360 nm, emission 582 nm: 26 fold
  fluorescence ratio w/ trypsin : w/o trypsin, excitation 360 nm, emission 583 nm: 28 fold
  fluorescence ratio w/ trypsin : w/o trypsin, excitation 360 nm, emission 584 nm: 24 fold
  fluorescence ratio w/ trypsin : w/o trypsin, excitation 360 nm, emission 585 nm: 27 fold
  fluorescence ratio w/ trypsin : w/o trypsin, excitation 522 nm, emission 570 nm: 29 fold
  fluorescence ratio w/ trypsin : w/o trypsin, excitation 522 nm, emission 571 nm: 27 fold
  fluorescence ratio w/ trypsin : w/o trypsin, excitation 522 nm, emission 572 nm: 29 fold
  fluorescence ratio w/ trypsin : w/o trypsin, excitation 522 nm, emission 573 nm: 29 fold
  fluorescence ratio w/ trypsin : w/o trypsin, excitation 522 nm, emission 574 nm: 27 fold
  fluorescence ratio w/ trypsin : w/o trypsin, excitation 522 nm, emission 575 nm: 27 fold
  fluorescence ratio w/ trypsin : w/o trypsin, excitation 522 nm, emission 576 nm: 29 fold
  fluorescence ratio w/ trypsin : w/o trypsin, excitation 522 nm, emission 577 nm: 27 fold
  fluorescence ratio w/ trypsin : w/o trypsin, excitation 522 nm, emission 578 nm: 28 fold
  fluorescence ratio w/ trypsin : w/o trypsin, excitation 522 nm, emission 579 nm: 27 fold
  fluorescence ratio w/ trypsin : w/o trypsin, excitation 522 nm, emission 580 nm: 29 fold
  fluorescence ratio w/ trypsin : w/o trypsin, excitation 522 nm, emission 581 nm: 27 fold
  fluorescence ratio w/ trypsin : w/o trypsin, excitation 522 nm, emission 582 nm: 29 fold
  fluorescence ratio w/ trypsin : w/o trypsin, excitation 522 nm, emission 583 nm: 28 fold
  fluorescence ratio w/ trypsin : w/o trypsin, excitation 522 nm, emission 584 nm: 27 fold
  fluorescence ratio w/ trypsin : w/o trypsin, excitation 522 nm, emission 585 nm: 28 fold
  fluorescence ratio w/ trypsin : w/o trypsin, excitation 530 nm, emission 570 nm: 28 fold
  fluorescence ratio w/ trypsin : w/o trypsin, excitation 530 nm, emission 571 nm: 28 fold
  fluorescence ratio w/ trypsin : w/o trypsin, excitation 530 nm, emission 572 nm: 27 fold
  fluorescence ratio w/ trypsin : w/o trypsin, excitation 530 nm, emission 573 nm: 28 fold
  fluorescence ratio w/ trypsin : w/o trypsin, excitation 530 nm, emission 574 nm: 27 fold
  fluorescence ratio w/ trypsin : w/o trypsin, excitation 530 nm, emission 575 nm: 28 fold
  fluorescence ratio w/ trypsin : w/o trypsin, excitation 530 nm, emission 576 nm: 27 fold
  fluorescence ratio w/ trypsin : w/o trypsin, excitation 530 nm, emission 577 nm: 28 fold
  fluorescence ratio w/ trypsin : w/o trypsin, excitation 530 nm, emission 578 nm: 27 fold
  fluorescence ratio w/ trypsin : w/o trypsin, excitation 530 nm, emission 579 nm: 26 fold
  fluorescence ratio w/ trypsin : w/o trypsin, excitation 530 nm, emission 580 nm: 27 fold
  fluorescence ratio w/ trypsin : w/o trypsin, excitation 530 nm, emission 581 nm: 27 fold
  fluorescence ratio w/ trypsin : w/o trypsin, excitation 530 nm, emission 582 nm: 27 fold
  fluorescence ratio w/ trypsin : w/o trypsin, excitation 530 nm, emission 583 nm: 27 fold
  fluorescence ratio w/ trypsin : w/o trypsin, excitation 530 nm, emission 584 nm: 27 fold
  fluorescence ratio w/ trypsin : w/o trypsin, excitation 530 nm, emission 585 nm: 27 fold
  fluorescence ratio w/ trypsin : w/o trypsin, excitation 553 nm, emission 570 nm: 25 fold
  fluorescence ratio w/ trypsin : w/o trypsin, excitation 553 nm, emission 571 nm: 25 fold
  fluorescence ratio w/ trypsin : w/o trypsin, excitation 553 nm, emission 572 nm: 25 fold
  fluorescence ratio w/ trypsin : w/o trypsin, excitation 553 nm, emission 573 nm: 25 fold
  fluorescence ratio w/ trypsin : w/o trypsin, excitation 553 nm, emission 574 nm: 25 fold
  fluorescence ratio w/ trypsin : w/o trypsin, excitation 553 nm, emission 575 nm: 24 fold
  fluorescence ratio w/ trypsin : w/o trypsin, excitation 553 nm, emission 576 nm: 25 fold
  fluorescence ratio w/ trypsin : w/o trypsin, excitation 553 nm, emission 577 nm: 25 fold
  fluorescence ratio w/ trypsin : w/o trypsin, excitation 553 nm, emission 578 nm: 25 fold
  fluorescence ratio w/ trypsin : w/o trypsin, excitation 553 nm, emission 579 nm: 24 fold
  fluorescence ratio w/ trypsin : w/o trypsin, excitation 553 nm, emission 580 nm: 25 fold
  fluorescence ratio w/ trypsin : w/o trypsin, excitation 553 nm, emission 581 nm: 24 fold
  fluorescence ratio w/ trypsin : w/o trypsin, excitation 553 nm, emission 582 nm: 25 fold
  fluorescence ratio w/ trypsin : w/o trypsin, excitation 553 nm, emission 583 nm: 24 fold
  fluorescence ratio w/ trypsin : w/o trypsin, excitation 553 nm, emission 584 nm: 25 fold
  fluorescence ratio w/ trypsin : w/o trypsin, excitation 553 nm, emission 585 nm: 25 fold
